Settings in all cases: remark: other sources report otherwise
Experiment [1] concerns the target T1, Trigger Factor (TF), full length, residues 1-432 (E. coli), P0A850.
T1 chain: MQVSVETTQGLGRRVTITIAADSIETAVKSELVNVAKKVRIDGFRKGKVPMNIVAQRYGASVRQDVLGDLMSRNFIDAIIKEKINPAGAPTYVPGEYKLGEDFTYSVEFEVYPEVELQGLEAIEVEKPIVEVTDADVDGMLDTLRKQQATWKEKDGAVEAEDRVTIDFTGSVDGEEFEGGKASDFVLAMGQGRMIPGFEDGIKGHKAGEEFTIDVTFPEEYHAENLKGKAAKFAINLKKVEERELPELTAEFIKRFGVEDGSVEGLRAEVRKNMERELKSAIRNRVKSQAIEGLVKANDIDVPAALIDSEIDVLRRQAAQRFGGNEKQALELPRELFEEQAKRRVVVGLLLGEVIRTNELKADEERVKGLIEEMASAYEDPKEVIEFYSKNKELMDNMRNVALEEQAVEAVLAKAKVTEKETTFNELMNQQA
Put plainly: SEC-MALS; concentration series of full-length TF and full-length mutants alone, 26 °C, sample buffer (20 mM K-phosphate pH 6.5, 100 mM KCl, 0.5 mM EDTA); fit to a fast monomer-dimer equilibrium; dimer to monomers. (In general: In gel filtration, larger molecules generally elute earlier.)

Experiment [2] concerns the target T2, Trigger Factor (TF), full length, residues 1–432 (E. coli), P0A850.
T2 chain: T1 chain
Put plainly: SEC-MALS; as a2 but 250 mM KCl; dimer to monomers.

In experiment [3] the target is T2, Trigger Factor (TF), full length, …. Description: AUC; sedimentation equilibrium, 6 °C, 100 mM KCl (sample buffer: 20 mM K-phosphate pH 6.5, 100 mM KCl, 0.5 mM EDTA); 12 μM TF, 48 and 135 μM RBD–SBD; global fit to a monomer–dimer model; dimer to monomers.
Experiment [4] has the same target. Put plainly: real-time NMR spin-label exchange (intermolecular PRE); 35 °C; 100 µM [U-2H,15N] TF mixed with 100 μM OXYL-1-NHS-labeled TF in sample buffer; decay of the 15N-filtered signal fitted to the lifetime of the dimer.
Experiment [5] has the same target. Description: SEC-MALS; sample buffer (20 mM K-phosphate pH 6.5, 100 mM KCl, 0.5 mM EDTA); 6 °C for the individual domains; concentration series fitted to a fast monomer–dimer equilibrium; dimer to monomers.
Experiment [6] shares this target. Put plainly: real-time NMR spin-label exchange (intermolecular PRE); 15 °C; 100 µM [U-2H,15N] TF mixed with 100 μM OXYL-1-NHS-labeled TF in sample buffer; decay of the 15N-filtered signal fitted to the lifetime of the dimer.
Experiment [7] has the same target. Description: SEC-MALS; as a2 but 500 mM KCl; dimer to monomers.

Kd, lifetime of the dimer and stoichiometry N data for two molecules are collected here from PMC5722895.

B1: Trigger Factor (TF), full length, residues 1-432, P0A850 1-432 (natural protein)
chain: T1 chain
As for B1, the Kd in experiment [1] was 1.1 µM.

B2: Trigger Factor (TF), full length, residues 1–432, P0A850 1-432 (natural protein)
chain: T1 chain
Consider B2, for which the Kd in experiment [2] was 9 µM; in experiment [3], 3.3 µM; in experiment [5] it was 1.7 µM; in experiment [7], 30 µM. The lifetime of the dimer in experiment [4] was 2.6 min; in experiment [6], 15.8 min. For the same molecule, the stoichiometry N in experiment [5] was found to be 2.

Broadly, the Kd is the concentration at which binding is half-saturated. Usually stoichiometry N stands for the number of molecules, sites or subunits per partner or assembly.
